Literature values as cited in paper PMC5519984.
Read-outs that look alike come from different tables or passages of the source.

What was measured:
[1] = biological target: Ras (Homo sapiens) (UniProt P01112)
[2] = biological target: Ras (Homo sapiens) (UniProt P01112); remark: listed apart in the source

Kd [1]: 158 µM
Kd [2]: 28 µM
Substance: HBS3 929-944 (from UniProt Q07889)
